B1: LCA60 (antibody, V domains shown)
VH: EVQLLESGGGLVKPGGSLRLSCEASGLTFSNVWMSWVRQAPGKGLEWVGRIKRKSEGATTDYGAPVKGRFTLSRDDSKNTVYLQMNSLKIDDTAVYYCSTLTRGGDVWSSSYYFDYWGQGALVTVSS
VL: QSALTQPASVSGSPGQSITISCTGTSSDVGTYDLVSWYQQHPGKSPKLMIYADIKRPSGVSHRFSGSKSGNTASLTISGLQSADEADYYCCLYAGSSTSVIFGGGTKVT
B2: D12 (antibody, V domains shown)
VH: EVKLVESGGGLVKPGGSLKLSCAASGFTFSSYAMSWVRQTPEKRLEWVATISSGGTYTYYPDSVKGRFTISRDNAENTLYLQMSSLRSEDTAMYYCVRDGNSMDYWGQGTSVTVSS
VL: DIQMTQTTSSLSASLGDRVTIICRASQDINNYLNWYQQKPDGTVKLLIYYTSRLHSGVPSRFSGSGSGSDYSLTISNLEQEDIATYFCQQANTLPPTFGAGTKLELR

Molecular target: MERS-CoV wild type receptor-binding domain (MERS-wtRBD), Twin Strep tagged (MERS-CoV)
Test: ELISA (FIG. 9)

Binder | binding result
B1 | binds
B2 | binds
